B1: PLAGL1 (parent)
chain: LELGSTEVLLDHLKAHAEEKPPSG
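Further: lentivirally expressed fusions sorted by FACS into six bins by GFP to DsRed ratio, PSI derived from sequencing read proportions per bin multiplied by bin number.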

In this series the parent is B1. Description: protein stability index of a GFP-peptide fusion (GPS, HEK-293T) (PSI 1-6); higher = more stable. To be noted: c terminus: a fixed tail appended.
With LELGSTEVLNDHLKAHAEEKPPSG, the protein stability index was 5.74. The result for LELGSTEVLLDHLDAHAEEKPPSG reads 5.56.

In the case of LELGSTEVLLDHLFAHAEEKPPSG, the protein stability index came to 3.5. Under LELGSTEVLLDHLYAHAEEKPPSG stands 4.14; under LELGSTEVLLDHLHAHAEEKPPSG, 5.15; under LELGSTEVLLDHLSAHAEEKPPSG, 5.04. Under LELGSTEVLLDHLVAHAEEKPPSG stands 4.63. For LELGSTEVLLDHLEAHAEEKPPSG, the protein stability index was 5.5. The result for LELGSTEVLLDHLAAHAEEKPPSG reads 4.93. The result for LELGSTEVLLDHLQAHAEEKPPSG reads 4.59. Take LELGSTEVLLDHLCAHAEEKPPSG: the protein stability index was 4.69.

Turning to LELGSTEVLLDHLGAHAEEKPPSG, the protein stability index is 5.39. As to LELGSTEVLLDHLWAHAEEKPPSG, the protein stability index came out at 4.1. LELGSTEVLLDHLRAHAEEKPPSG: the protein stability index turned out to be 3.5. As to LELGSTEVLLDHLMAHAEEKPPSG, the protein stability index was determined as 3.6. Under LELGSTEVLLDHLPAHAEEKPPSG stands 5.32; under LELGSTEVLLDHLNAHAEEKPPSG, 5.04. As for LELGSTEVLLDHLLAHAEEKPPSG, the protein stability index worked out at 4.61. Regarding LELGSTEVLLDHLIAHAEEKPPSG, the protein stability index worked out at 4.55.

For the variant LELGSTEVLLDHLTAHAEEKPPSG, the protein stability index came to 5.1. Under LELGSTEVLLDDLKAHAEEKPPSG stands 5.18; under LELGSTEVLLDQLKAHAEEKPPSG, 4.82; under LELGSTEVLLDSLKAHAEEKPPSG, 4.9. On to LELGSTEVLLDILKAHAEEKPPSG, for which the protein stability index was 3.02. On to LELGSTEVLLDVLKAHAEEKPPSG, for which the protein stability index turned out to be 3.26. The result for LELGSTEVLLDCLKAHAEEKPPSG reads 4.32. The result for LELGSTEVLLDALKAHAEEKPPSG reads 3.98. LELGSTEVLLDTLKAHAEEKPPSG: the protein stability index came to 4.62. Turning to LELGSTEVLLDPLKAHAEEKPPSG, the protein stability index was determined as 5.48. With LELGSTEVLLDNLKAHAEEKPPSG, the protein stability index is 5.15. Under LELGSTEVLLDYLKAHAEEKPPSG stands 2.44; under LELGSTEVLLDLLKAHAEEKPPSG, 2.21; under LELGSTEVLLDGLKAHAEEKPPSG, 5.16. In the case of LELGSTEVLLDELKAHAEEKPPSG, the protein stability index came out at 5.54. The result for LELGSTEVLLDRLKAHAEEKPPSG reads 4.37. Under LELGSTEVLLDWLKAHAEEKPPSG stands 3.

For LELGSTEVLLDFLKAHAEEKPPSG, the protein stability index turned out to be 2.71. Under LELGSTEVLLDMLKAHAEEKPPSG stands 3.06. The result for LELGSTEVLLDKLKAHAEEKPPSG reads 3.99. Under LELGSTEVLLDHIKAHAEEKPPSG stands 4.97; under LELGSTEVLLDHDKAHAEEKPPSG, 5.87; under LELGSTEVLLDHQKAHAEEKPPSG, 5.76. In the case of LELGSTEVLLDHSKAHAEEKPPSG, the protein stability index is 5.6.

For the variant LELGSTEVLLDHCKAHAEEKPPSG, the protein stability index turned out to be 4.84. In the case of LELGSTEVLLDHWKAHAEEKPPSG, the protein stability index was determined as 3.78.

For the variant LELGSTEVLLDHGKAHAEEKPPSG, the protein stability index came out at 5.46. Under LELGSTEVLLDHFKAHAEEKPPSG stands 4.22; under LELGSTEVLLDHRKAHAEEKPPSG, 5.6; under LELGSTEVLLDHTKAHAEEKPPSG, 5.46. Take LELGSTEVLLDHNKAHAEEKPPSG: the protein stability index stood at 5.64.

Turning to LELGSTEVLLDHHKAHAEEKPPSG, the protein stability index was 5.61. Under LELGSTEVLLDHKKAHAEEKPPSG stands 5.68; under LELGSTEVLLDHEKAHAEEKPPSG, 5.3. LELGSTEVLLDHPKAHAEEKPPSG: the protein stability index was determined as 5.35.

Consider LELGSTEVLLDHAKAHAEEKPPSG, for which the protein stability index was 5.38. On to LELGSTEVLLDHVKAHAEEKPPSG, for which the protein stability index turned out to be 4.36. As for LELGSTEVLLDHYKAHAEEKPPSG, the protein stability index came to 3.9.

Consider LELGSTEVLLDHMKAHAEEKPPSG, for which the protein stability index stood at 5.09. The result for LELGSTEVGLDHLKAHAEEKPPSG reads 5.6; that for LELGSTEVYLDHLKAHAEEKPPSG, 4.83. Under LELGSTEVSLDHLKAHAEEKPPSG stands 5.72; under LELGSTEVILDHLKAHAEEKPPSG, 4.45; under LELGSTEVTLDHLKAHAEEKPPSG, 5.58. The result for LELGSTEVWLDHLKAHAEEKPPSG reads 4.11; that for LELGSTEVPLDHLKAHAEEKPPSG, 5.57; that for LELGSTEVMLDHLKAHAEEKPPSG, 4.77. With LELGSTEVQLDHLKAHAEEKPPSG, the protein stability index stood at 5.84. Under LELGSTEVDLDHLKAHAEEKPPSG stands 4.91; under LELGSTEVRLDHLKAHAEEKPPSG, 4.63; under LELGSTEVVLDHLKAHAEEKPPSG, 4.97.

On to LELGSTEVNLDHLKAHAEEKPPSG, for which the protein stability index stood at 5.71. The result for LELGSTEVELDHLKAHAEEKPPSG reads 5.92; that for LELGSTEVFLDHLKAHAEEKPPSG, 4.79; that for LELGSTEVHLDHLKAHAEEKPPSG, 5.15.

Take LELGSTEVKLDHLKAHAEEKPPSG: the protein stability index is 4.99. In the case of LELGSTEVLLDHLKLHAEEKPPSG, the protein stability index turned out to be 4.83.

On to LELGSTEVLLDHLKGHAEEKPPSG, for which the protein stability index was 4.29.

On to LELGSTEVLLDHLKQHAEEKPPSG, for which the protein stability index came to 4.63. The result for LELGSTEVLLDHLKPHAEEKPPSG reads 5.41; that for LELGSTEVLLDHLKKHAEEKPPSG, 3.87; that for LELGSTEVLLDHLKVHAEEKPPSG, 4.72.

As for LELGSTEVLLDHLKYHAEEKPPSG, the protein stability index is 4.04. Take LELGSTEVLLDHLKCHAEEKPPSG: the protein stability index came to 4.04. The result for LELGSTEVLLDHLKTHAEEKPPSG reads 5.14; that for LELGSTEVLLDHLKIHAEEKPPSG, 4.24; that for LELGSTEVLLDHLKSHAEEKPPSG, 4.44.

As for LELGSTEVLLDHLKWHAEEKPPSG, the protein stability index was determined as 3.54. With LELGSTEVLLDHLKDHAEEKPPSG, the protein stability index was determined as 4.8. Consider LELGSTEVLLDHLKFHAEEKPPSG, for which the protein stability index came out at 4.18. The result for LELGSTEVLLDHLKRHAEEKPPSG reads 3.89; that for LELGSTEVLLDHLKNHAEEKPPSG, 4.73. Under LELGSTEVLLDHLKMHAEEKPPSG stands 4.48; under LELGSTEVLLDHLKHHAEEKPPSG, 4.37; under LELGSTEVLLDHLKEHAEEKPPSG, 5.05.

The values are drawn from the supplement of paper PMC10567573.
